Data from the supplement of paper PMC9112550, “Optimization of the antimicrobial peptide Bac7 by deep mutational scanning” (BMC Biology, 2022).

Tested on: Escherichia coli TOP10
Experiment: shrunken log2 fold change of peptide-encoding DNA abundance (4.5 h post-induction vs induction); higher = less antimicrobial activity (less host growth inhibition)
Details: time post-induction: 4.5 h; library: site-saturation at positions 5, 18, 19, 20
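Also: peptides expressed intracellularly from a pBAD plasmid library in pooled LB shake-flask culture, induced with 0.3% L-arabinose, DNA abundance read by NGS, three biological replicates, DESeq2 with apeglm shrinkage.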

Sequence | shrunken log2 fold change
RRIRVRPPRLPRPRPRPGSAPRP | 0.179
RRIRFRPPRLPRPRPRPRYVPRP | -0.105
RRIRQRPPRLPRPRPRPGIVPRP | 0.0144
RRIRYRPPRLPRPRPRPICTPRP | -0.376
RRIRVRPPRLPRPRPRPEHRPRP | -0.0452
RRIRQRPPRLPRPRPRPRVAPRP | 0.337
RRIRARPPRLPRPRPRPWYDPRP | -0.32
RRIRARPPRLPRPRPRPFKCPRP | -0.0202
RRIRHRPPRLPRPRPRPPLCPRP | 0.0792
RRIRTRPPRLPRPRPRPWTKPRP | -0.00433
RRIRYRPPRLPRPRPRPVQHPRP | -0.247
RRIRVRPPRLPRPRPRPPVHPRP | -0.0509
RRIRPRPPRLPRPRPRPTLPPRP | 0.309
RRIRGRPPRLPRPRPRPHMDPRP | 0.0325
RRIRSRPPRLPRPRPRPDRLPRP | -0.168
RRIRHRPPRLPRPRPRPFRRPRP | 0.0303
RRIRSRPPRLPRPRPRPVFGPRP | 0.0263
RRIRQRPPRLPRPRPRPASQPRP | 0.0572
RRIRKRPPRLPRPRPRPRNPPRP | 0.358
RRIRLRPPRLPRPRPRPVYLPRP | -1.14
RRIRNRPPRLPRPRPRPQIEPRP | -0.251
RRIRVRPPRLPRPRPRPWTYPRP | -1.3
RRIRARPPRLPRPRPRPDVIPRP | 0.0534
RRIRDRPPRLPRPRPRPREYPRP | 0.306
RRIRERPPRLPRPRPRPWPSPRP | 0.134

Sequence | shrunken log2 fold change
RRIRCRPPRLPRPRPRPRYPPRP | -0.00708
RRIRGRPPRLPRPRPRPTAFPRP | 1.19
RRIRSRPPRLPRPRPRPPGTPRP | 0.396
RRIRNRPPRLPRPRPRPQDWPRP | -0.133
RRIRARPPRLPRPRPRPVQDPRP | -0.0965
RRIRRRPPRLPRPRPRPMDRPRP | 0.118
RRIRWRPPRLPRPRPRPYARPRP | 0.101
RRIRKRPPRLPRPRPRPFMRPRP | 0.24
RRIRHRPPRLPRPRPRPIKYPRP | -0.194
RRIRDRPPRLPRPRPRPANLPRP | -0.0687
RRIRYRPPRLPRPRPRPPHPPRP | -0.187
RRIRFRPPRLPRPRPRPGERPRP | 0.266
RRIRERPPRLPRPRPRPRTAPRP | 0.131
RRIRYRPPRLPRPRPRPQFDPRP | -0.0286
RRIRNRPPRLPRPRPRPSFAPRP | 0.00213
RRIRERPPRLPRPRPRPSLPPRP | -0.19
RRIRARPPRLPRPRPRPKHDPRP | 0.263
RRIRNRPPRLPRPRPRPMRAPRP | 0.517
RRIRGRPPRLPRPRPRPCMKPRP | 0.507
RRIRMRPPRLPRPRPRPRCPPRP | 0.757
RRIRARPPRLPRPRPRPQCHPRP | 0.441
RRIRNRPPRLPRPRPRPNVQPRP | -0.128
RRIRVRPPRLPRPRPRPASYPRP | 0.0708
RRIRFRPPRLPRPRPRPSHGPRP | -0.391
RRIRPRPPRLPRPRPRPMQIPRP | 0.114

Sequence | shrunken log2 fold change
RRIRQRPPRLPRPRPRPCRDPRP | 0.0161
RRIRKRPPRLPRPRPRPKAMPRP | -0.0457
RRIRNRPPRLPRPRPRPRVNPRP | -0.0734
RRIRLRPPRLPRPRPRPNVGPRP | 0.0116
RRIRWRPPRLPRPRPRPWWRPRP | 0.0782
RRIRMRPPRLPRPRPRPENNPRP | 1.53
RRIRQRPPRLPRPRPRPFSVPRP | -0.199
RRIRDRPPRLPRPRPRPQKIPRP | 0.0171
RRIRQRPPRLPRPRPRPMWPPRP | 0.269
RRIRLRPPRLPRPRPRPSHFPRP | -0.0938
RRIRKRPPRLPRPRPRPTGVPRP | 0.00874
RRIRERPPRLPRPRPRPHASPRP | -0.346
RRIRVRPPRLPRPRPRPWLPPRP | -0.59
RRIRCRPPRLPRPRPRPYHGPRP | -0.968
RRIRWRPPRLPRPRPRPVIVPRP | -0.0785
RRIRRRPPRLPRPRPRPFGCPRP | 0.222
RRIRKRPPRLPRPRPRPWREPRP | 0.184
RRIRIRPPRLPRPRPRPIGMPRP | -0.187
RRIRLRPPRLPRPRPRPCHLPRP | 0.0143
RRIRHRPPRLPRPRPRPWHDPRP | -0.00088
RRIRERPPRLPRPRPRPKNQPRP | -0.281
RRIRRRPPRLPRPRPRPLPCPRP | -0.0345
RRIRNRPPRLPRPRPRPDQDPRP | -0.00104
RRIRWRPPRLPRPRPRPGKTPRP | 0.0109
RRIRKRPPRLPRPRPRPPCFPRP | 0.211

Sequence | shrunken log2 fold change
RRIRLRPPRLPRPRPRPLWWPRP | 0.531
RRIRRRPPRLPRPRPRPPIVPRP | -0.00408
RRIRKRPPRLPRPRPRPCPLPRP | -0.24
RRIRLRPPRLPRPRPRPNKNPRP | -0.366
RRIRMRPPRLPRPRPRPVMAPRP | 0.266
RRIRGRPPRLPRPRPRPTKYPRP | 0.189
RRIRFRPPRLPRPRPRPFSRPRP | 0.184
RRIRWRPPRLPRPRPRPLDYPRP | -0.314
RRIRHRPPRLPRPRPRPYYAPRP | -0.417
RRIRRRPPRLPRPRPRPEKVPRP | 0.448
RRIRQRPPRLPRPRPRPRNPPRP | 0.375
RRIRVRPPRLPRPRPRPMRFPRP | 0.48
RRIRDRPPRLPRPRPRPKDPPRP | -0.00415
RRIRDRPPRLPRPRPRPKVYPRP | -0.0329
RRIRIRPPRLPRPRPRPWTPPRP | -0.179
RRIRARPPRLPRPRPRPVDGPRP | 0.381
RRIRIRPPRLPRPRPRPCCWPRP | 0.0865
RRIRPRPPRLPRPRPRPKQNPRP | 0.0525
RRIRDRPPRLPRPRPRPNRFPRP | -0.00648
RRIRLRPPRLPRPRPRPQMVPRP | -0.108
RRIRERPPRLPRPRPRPYYAPRP | -0.72
RRIRIRPPRLPRPRPRPMCEPRP | -0.00819
RRIRPRPPRLPRPRPRPQYFPRP | -0.0988
RRIRTRPPRLPRPRPRPFHFPRP | -0.303
RRIRFRPPRLPRPRPRPFSDPRP | -0.229

Sequence | shrunken log2 fold change
RRIRRRPPRLPRPRPRPTECPRP | 0.0801
RRIRPRPPRLPRPRPRPDQHPRP | -0.0313
RRIRSRPPRLPRPRPRPMMIPRP | -0.196
RRIRKRPPRLPRPRPRPKIVPRP | 0.0401
RRIRARPPRLPRPRPRPQKAPRP | 0.0481
RRIRNRPPRLPRPRPRPSHLPRP | -0.438
RRIRWRPPRLPRPRPRPLWQPRP | 0.156
RRIRYRPPRLPRPRPRPKFVPRP | -0.416
RRIRNRPPRLPRPRPRPMYQPRP | -0.201
RRIRMRPPRLPRPRPRPPPVPRP | 1.65
RRIRTRPPRLPRPRPRPMGAPRP | -0.0569
RRIRVRPPRLPRPRPRPRCSPRP | -0.212
RRIRERPPRLPRPRPRPTKIPRP | -0.19
RRIRHRPPRLPRPRPRPWGPPRP | -0.0071
RRIRWRPPRLPRPRPRPYLAPRP | -0.211
RRIRVRPPRLPRPRPRPATFPRP | -0.387
RRIRERPPRLPRPRPRPRFSPRP | -0.0175
RRIRWRPPRLPRPRPRPRWWPRP | 0.0648
RRIRCRPPRLPRPRPRPNCSPRP | 0.0117
RRIRFRPPRLPRPRPRPIFKPRP | -0.153
RRIRVRPPRLPRPRPRPRCDPRP | -0.0186
RRIRIRPPRLPRPRPRPHQRPRP | -0.137
RRIRCRPPRLPRPRPRPWRFPRP | 0.145
RRIRKRPPRLPRPRPRPAGYPRP | 0.0743
RRIRCRPPRLPRPRPRPNSRPRP | -0.175
